Here are results for 5 molecules from US20250313635A1 (Merck Sharp & Dohme, published 2025).

Experiment [1] concerns the target T1, recombinant human αvβ5 integrin extracellular domains (human, UniProt P06756 1-992; P18084 1-719, Secreted glycoprotein heterodimer. It is biotinylated on the omitted Avitag, and an interchain disulfide sits in the omitted coiled-coils.).
T1 construct: Soluble heterodimer co-expressed in Expi293 cells; also called hαvβ5; not shown: Alpha chain: acidic coiled-coil with cysteine and GG-Avitag; Beta chain: basic coiled-coil with cysteine and GG-Avitag
The experiment is described as follows: AlphaLISA blocking of human vitronectin-GST binding. Background: In Alpha technology, singlet oxygen from a donor bead excites a nearby acceptor bead.

Experiment [2] concerns the target T2, recombinant human αvβ3 integrin extracellular domains (human, UniProt P06756 1-992; P05106 1-718, Secreted glycoprotein heterodimer. It is biotinylated on the omitted Avitag, and an interchain disulfide sits in the omitted coiled-coils.).
T2 construct: Soluble heterodimer co-expressed in Expi293 cells; also called hαvβ3; not shown: Alpha chain: acidic coiled-coil with cysteine and GG-Avitag; Beta chain: basic coiled-coil with cysteine and GG-Avitag
The experiment is described as above.

For experiment [3], the target named is T3, recombinant human αvβ6 integrin extracellular domains (human, UniProt P06756 1-992; P18564 1-709, Biotinylated on the Avitag (tag not in the letters); interchain disulfide between the coiled-coils (not in the letters).).
T3 construct: Soluble heterodimer co-expressed in Expi293 cells; also called hαvβ6
The experiment is described as follows: AlphaLISA blocking of human LAP binding.

Experiment [4] addresses T4, recombinant human αvβ8 integrin extracellular domains (human, UniProt P06756 1-992; P26012 1-684, Biotinylated on the Avitag (tag not in the letters); interchain disulfide between the coiled-coils (not in the letters).).
T4 construct: Soluble heterodimer co-expressed in Expi293 cells; also called hαvβ8
The experiment is described as follows: AlphaLISA blocking of human LAP binding.

Experiment [5] has as its target T5, recombinant mouse αvβ1 integrin extracellular domains (mouse, UniProt P43406 1-988; P09055 1-728, Biotinylated on the Avitag (tag not in the letters); interchain disulfide between the coiled-coils (not in the letters).).
T5 construct: Soluble heterodimer co-expressed in Expi293 cells; also called mαvβ1
The experiment is described as follows: AlphaLISA blocking of mouse fibronectin binding. On the procedure:
(§1) Briefly, the testing antibody (8 μL) was added as a 4×(of Final testing concentration) solution in the HEPES buffer described previously into a 384w AlphaPlate™ (Perkin Elmer #6005350). Then the integrin and ligand were added sequentially as 8×(4 μL each). Plates were sealed and incubated at room temperature for two hours. Then 4×acceptor bead solution ([…]) was added, and the plates were resealed and incubated at room temperature (RT) for one hour. Finally, 4×([…]) donor beads solution was added in a darkened room and incubated for 45 minutes at room temperature. Plates were read on the Envision (Perkin Elmer) in AlphaScreen™ mode within three hours of donor bead addition.

In experiment [6] the target is T6, recombinant human αvβ1 integrin extracellular domains (human, UniProt P06756 1-992; P05556 1-728, Secreted glycoprotein heterodimer. It is biotinylated on the omitted Avitag, and an interchain disulfide sits in the omitted coiled-coils.).
T6 construct: Soluble heterodimer co-expressed in Expi293 cells; also called hαvβ1; not shown: Alpha chain: acidic coiled-coil with cysteine and GG-Avitag; Beta chain: basic coiled-coil with cysteine and GG-Avitag
Kind of experiment: ForteBio Octet Red (BLI).

Experiment [7] deals with T7, recombinant mouse αvβ6 integrin extracellular domains (mouse, UniProt P43406 1-988; Q9Z0T9 1-706, Biotinylated on the Avitag (tag not in the letters); interchain disulfide between the coiled-coils (not in the letters).).
T7 construct: Soluble heterodimer co-expressed in Expi293 cells; also called mαvβ6
T7 sequence (P43406 31-988 limits assumed, form in doubt, chain 1 of 2): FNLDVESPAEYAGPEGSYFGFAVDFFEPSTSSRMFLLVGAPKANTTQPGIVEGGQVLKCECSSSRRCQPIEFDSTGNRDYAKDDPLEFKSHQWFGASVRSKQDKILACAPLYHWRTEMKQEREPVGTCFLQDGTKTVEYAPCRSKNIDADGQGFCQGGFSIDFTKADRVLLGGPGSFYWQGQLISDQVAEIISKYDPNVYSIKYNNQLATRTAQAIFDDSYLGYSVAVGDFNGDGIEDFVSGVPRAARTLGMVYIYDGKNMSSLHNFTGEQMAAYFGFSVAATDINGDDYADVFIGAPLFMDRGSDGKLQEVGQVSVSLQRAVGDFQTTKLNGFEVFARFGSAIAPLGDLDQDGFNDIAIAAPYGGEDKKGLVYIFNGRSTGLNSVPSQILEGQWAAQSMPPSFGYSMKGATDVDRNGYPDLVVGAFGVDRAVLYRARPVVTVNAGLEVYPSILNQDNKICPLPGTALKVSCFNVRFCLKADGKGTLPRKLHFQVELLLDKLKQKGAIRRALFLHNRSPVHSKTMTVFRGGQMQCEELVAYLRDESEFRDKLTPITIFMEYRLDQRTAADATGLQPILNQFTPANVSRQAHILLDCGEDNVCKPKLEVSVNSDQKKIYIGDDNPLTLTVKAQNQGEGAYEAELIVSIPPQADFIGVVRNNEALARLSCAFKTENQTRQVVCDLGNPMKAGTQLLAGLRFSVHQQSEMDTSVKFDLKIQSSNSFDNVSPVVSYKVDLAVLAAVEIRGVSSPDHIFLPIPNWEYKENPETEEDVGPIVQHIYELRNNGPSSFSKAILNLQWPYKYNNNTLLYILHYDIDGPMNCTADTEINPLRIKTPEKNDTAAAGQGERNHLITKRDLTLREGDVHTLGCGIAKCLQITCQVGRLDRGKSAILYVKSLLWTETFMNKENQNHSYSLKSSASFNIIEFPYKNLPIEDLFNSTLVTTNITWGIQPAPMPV
T7 sequence (Q9Z0T9 22-706 limits assumed, form in doubt, chain 2 of 2): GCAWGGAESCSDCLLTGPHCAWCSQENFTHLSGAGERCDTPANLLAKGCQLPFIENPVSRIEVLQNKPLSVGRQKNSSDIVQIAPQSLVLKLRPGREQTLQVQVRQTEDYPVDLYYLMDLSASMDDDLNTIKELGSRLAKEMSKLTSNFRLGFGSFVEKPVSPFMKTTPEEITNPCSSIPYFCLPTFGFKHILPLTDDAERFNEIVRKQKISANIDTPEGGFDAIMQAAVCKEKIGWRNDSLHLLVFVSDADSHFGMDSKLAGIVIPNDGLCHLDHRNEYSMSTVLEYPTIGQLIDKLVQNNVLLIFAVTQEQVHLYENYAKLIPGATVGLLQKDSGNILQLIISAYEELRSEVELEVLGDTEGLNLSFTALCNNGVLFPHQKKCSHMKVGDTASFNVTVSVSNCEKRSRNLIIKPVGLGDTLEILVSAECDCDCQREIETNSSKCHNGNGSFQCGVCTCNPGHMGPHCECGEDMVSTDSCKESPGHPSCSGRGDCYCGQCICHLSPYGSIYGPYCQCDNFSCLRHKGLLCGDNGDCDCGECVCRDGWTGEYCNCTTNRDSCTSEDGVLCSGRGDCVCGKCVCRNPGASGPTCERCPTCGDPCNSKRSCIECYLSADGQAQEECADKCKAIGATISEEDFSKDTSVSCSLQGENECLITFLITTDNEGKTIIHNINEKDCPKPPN
The experiment is described as follows: ForteBio Octet Red (BLI). In general terms: In BLI a coated tip is dipped into the sample, and binding shifts an interference pattern.

In experiment [8] the target is T5, recombinant mouse αvβ1 integrin …. Kind of experiment: ForteBio Octet Red (BLI).
Experiment [9] concerns the target T2, recombinant human αvβ3 integrin …. The experiment is described as follows: ForteBio Octet Red (BLI).
Experiment [10] addresses T7, recombinant mouse αvβ6 integrin …. Kind of experiment: AlphaLISA blocking of mouse LAP-6His binding. On the procedure:
as §1

Experiment [11] has as its target T6, recombinant human αvβ1 integrin …. The experiment is described as follows: AlphaLISA blocking of human fibronectin binding.
The target in experiment [12] is T8, recombinant human α5β1 integrin extracellular domains (human, UniProt P08648 1-995; P05556 1-728, Biotinylated on the Avitag (tag not in the letters); interchain disulfide between the coiled-coils (not in the letters).).
T8 construct: Soluble heterodimer co-expressed in Expi293 cells; also called hα5β1
Kind of experiment: AlphaLISA blocking of human fibronectin binding.

For experiment [13], the target named is T9, human αvβ1 integrin on CHOK1 stable cells (human, UniProt P06756 31-1048; P05556 21-798).
T9 construct: whole, on cells; Stably expressed on CHOK1 cells; also called hαvβ1; CHOK1-human αvβ1
Kind of experiment: cell-based ELISA (CELISA), CHOK1 cells expressing the integrin. On the procedure: Integrin cell-based ELISA (CELISA) assay. Cell binding EC₅₀ data for antibodies were obtained for CHOK1 parental cells and CHOK1 cells expressing human or mouse αvβ1, αvβ6, and αvβ1 integrins by cell-based ELISA. Three days prior to the assay cells were seeded at 10,000 cells per well in 100 μL/well of media in Falcon 96-well Flat-Bottom Tissue Culture Plates (REF 353916), resulting in an even cell monolayer in each well on the day of the assay. On the day of the assay, media was removed from the cells and a fivefold titration of primary antibodies was added at concentrations ranging from 0 to 200 nM in TBSF+MnCl₂ buffer (25 mM Tris, 0.15 M NaCl, 0.1% BSA, 0.5 mM MnCl₂, pH 7.5). Cells incubated with primary antibody solution for 1 hour at room temperature. […] After 30 minutes of incubation at room temperature, secondary antibody was removed, and cells were washed twice with 150 μL/well of 1×DPBS+Tween 20. Then 50 μL/well of TMB substrate (1-Step Ultra TMB-ELISA, Thermo Scientific, #34028) was added, incubated with cells at room temperature, and 50 μL/well of TMB stop solution (Seracare, #KPL 50-85-05) was then added after five minutes. Absorbance was read on a TECAN plate reader at 450 nm, with a 620 nm reference wavelength.

T5 sequence (P43406 31-988 limits assumed, form in doubt, chain 1 of 2): as the sequence (P43406 31-988 limits assumed, form in doubt, chain 1 of 2) above
T5 sequence (P09055 21-728 limits assumed, form in doubt, chain 2 of 2): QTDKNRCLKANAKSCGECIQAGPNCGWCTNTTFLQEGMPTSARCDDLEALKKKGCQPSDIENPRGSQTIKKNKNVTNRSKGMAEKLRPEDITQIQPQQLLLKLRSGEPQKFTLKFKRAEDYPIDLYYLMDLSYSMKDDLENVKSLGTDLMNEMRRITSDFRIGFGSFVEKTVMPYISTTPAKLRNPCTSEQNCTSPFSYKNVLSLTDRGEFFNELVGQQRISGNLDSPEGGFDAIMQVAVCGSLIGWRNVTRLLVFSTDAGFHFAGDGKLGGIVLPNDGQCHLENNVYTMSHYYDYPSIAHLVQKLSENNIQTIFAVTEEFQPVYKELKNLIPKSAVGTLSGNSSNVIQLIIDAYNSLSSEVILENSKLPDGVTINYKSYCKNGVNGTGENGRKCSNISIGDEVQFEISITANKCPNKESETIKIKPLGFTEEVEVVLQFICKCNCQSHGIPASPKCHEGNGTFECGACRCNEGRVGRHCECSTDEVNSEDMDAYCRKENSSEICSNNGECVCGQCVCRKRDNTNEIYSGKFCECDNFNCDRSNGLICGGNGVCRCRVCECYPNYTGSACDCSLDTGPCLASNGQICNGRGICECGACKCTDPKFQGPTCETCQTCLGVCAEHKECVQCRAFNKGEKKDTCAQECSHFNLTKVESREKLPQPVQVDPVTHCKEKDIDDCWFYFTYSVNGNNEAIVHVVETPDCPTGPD

B1: Ab-29 (antibody, V domains shown)
VH: ELQLQESGPGLVKPSETLSLTCTVSGGSISSNSYYWGWIRQPPGKGLEWIGSIYYSGSTYYNPSLKSRVTISVDTSKNQFSLKLSSVTAADTAVYYCARVRRVAGRGDSYYYYYGMDVWGQGTTVTVSS
VL: DIQMTQSPSSVSASVGDRVTITCRASQGISRWLAWYQQKPGKAPKLLIYAASSLQSGVPSRFSGSGSGTDFTLTISSLQPEDFATYYCQQAISHPWTFGGGTKVEIK
As usually defined, the IC50 is the midpoint of a concentration-inhibition curve. The Kd is the constant that tells how readily two partners part at equilibrium. Usually EC50 stands for the concentration at which the effect is half-maximal. Low values mean an effect from little substance, high ones a need for much substance. For B1, the IC50 in [1] worked out at 14.8 nM; in experiment [2] it was 1.16 nM; in experiment [3], 96 nM; in experiment [4] it was 200 nM; in experiment [5], 3.4 nM; in experiment [10], 26.3 nM. The IC50 in [11] stood at 2.57 nM; in [12] it was 9.46 nM. Also, the dissociation constant (Kd) was 2.7 nM in [6], 4.11 nM in experiment [7], 4.21 nM in [8] and 6.58 nM in [9]. In [13], this molecule displayed an EC50 of 0.198 nM.

B2: Ab-31 (antibody, V domains shown)
VH: EVQLQESGPGLVKPSETLSLTCAVSGYSISSGYYWGWIRQPPGKGLEWIGSIYHSGNTYYNPSLKSRVTISVDTSKNQFSLKLSSVTAADTAVYYCARVPRYSRGDAYYYYGMDVWGQGTTVTVSS
VL: DIQMTQSPSTLSASVGDRVTITCRASQSIGSWLAWYQQKPGKAPKLLIYKASSLESGVPSRFSGSGSGTEFTLTISSLQPDDFATYYCQQSGPYPWTFGGGTKVEIK
Take B2: the half-inhibitory concentration (IC50) in experiment [1] stood at 31.7 nM; in experiment [2], 0.94 nM; in experiment [3] it was 30.9 nM; in experiment [4] it was 47.8 nM; in experiment [5], 6.6 nM; in [10], 17.7 nM. Also, the IC50 in experiment [11] turned out to be 2.26 nM; in [12] it was 47.3 nM. Besides, the equilibrium dissociation constant (Kd) in [6] worked out at 14 nM; in [7], 2.9 nM; in experiment [8] it was 48.4 nM; in [9], 6.47 nM. In addition, the response in experiment [13] was half-maximal at 0.32 nM (EC50).

B3: Ab-32 (antibody, V domains shown)
VH: EVQLQESGPGLVKPSETLSLTCAVSGYSISSGYYWGWIRQPPGKGLEWIGSIYHSGNTYYNPSLKSRVTISVDTSKNQFSLKLSSVTAADTAVYYCARVPRYSRGDAYYYYGMDVWGQGTTVTVSS
VL: EIVLTQSPGTLSLSPGERATLSCRASQSVRSSYLAWYQQKPGQAPRLLIYGASSRATGIPDRFSGSGSGTDFTLTISRLEPEDFAVYYCQQAGLVFTFGGGTKVEIK
For the molecule B3, the half-inhibitory concentration (IC50) turned out to be 26 nM in experiment [1]; 1.03 nM in experiment [2]; 16.4 nM in experiment [3]; 48 nM in experiment [4]; 6.7 nM in experiment [5]; 17.1 nM in experiment [10]. The values for the IC50 in [11] and in experiment [12] were 2.41 nM and 34.1 nM, respectively. In addition, the Kd in [6] came out at 7.4 nM; in experiment [7] it was 2.59 nM; in experiment [8], 25.9 nM; in experiment [9], 6.14 nM. For the same molecule, the EC50 in experiment [13] is 0.335 nM.

B4: Ab-33 (antibody, V domains shown)
VH: EVQLVQSGAEVKKPGSSVKVSCKASGGTFSNYAISWVRQAPGQGLEWMGGIIPIFGTANYAQKFQGRVTITADESTSTAYMELSSLRSEDTAVYYCARAPRSARGDMYYYYYGMDVWGQGTTVTVSS
VL: DIQMTQSPSTLSASVGDRVTITCRASQSIGSWLAWYQQKPGKAPKLLIYKASSLESGVPSRFSGSGSGTEFTLTISSLQPDDFATYYCQQYGRYPWTFGGGTKVEIK
B4: the IC50 was 22.3 nM in experiment [1]; 1.28 nM in experiment [2]; 7.49 nM in experiment [3]; 12.2 nM in experiment [4]; 4.5 nM in experiment [5]; 6.6 nM in experiment [10]. For the same molecule, the IC50 was 1.27 nM in experiment [11] and 31.1 nM in [12]. Moreover, the Kd in experiment [6] stood at 12.7 nM; in experiment [7], 2.45 nM; in experiment [8], 37.7 nM; in experiment [9], 5.07 nM. The molecule further yielded an EC50 in [13] of 0.702 nM.

B5: Ab-30 (antibody, V domains shown)
VH: EVQLQESGPGLVKPSETLSLTCAVSGYSISSGYYWGWIRQPPGKGLEWIGSIYHSGNTYYNPSLKSRVTISVDTSKNQFSLKLSSVTAADTAVYYCARVPRYSRGDAYYYYGMDVWGQGTTVTVSS
VL: DIQMTQSPSTLSASVGDRVTITCRASQSISSWLAWYQQKPGKAPKLLIYKASSLESGVPSRFSGSGSGTEFTLTISSLQPDDFATYYCQQVKIYPPYTFGGGTKVEIK
With B5, the 50% inhibitory concentration (IC50) in experiment [1] worked out at 53.5 nM; in experiment [2], 1.24 nM; in experiment [3], 25.4 nM; in [4], 19.7 nM; in experiment [5] it was 6.8 nM; in experiment [10], 23.2 nM. Besides, the results for the half-maximal inhibitory concentration (IC50) in [11] and in [12] were 3.15 nM and 43.1 nM, respectively. Besides, the Kd in experiment [6] amounted to 6.75 nM; in experiment [7], 3.03 nM; in [8] it was 35 nM; in experiment [9], 5.29 nM. In addition, in experiment [13], a half-maximal effect (EC50) was put at 0.23 nM.
